Measurements: PMC6982183

Biological target: human Hsp60 wild type (human)
Assay: SEC; Superdex 200 Increase 10/300 GL, 50 mM Tris-HCl (pH 7.8 at 25 °C), 2 mM DTT, 2 mM EDTA, 0.5 mg sample, 0.75 mL/min; size from calibration with molecular weight standards; before and after agitation

Question: For human Hsp60 wild type (natural protein), which stoichiometry N is on record?
Answer: 14
